Experimental data: IntAct's records for PubMed 29039417

B1: BBSome complex member BBS1 (Homo sapiens), Q8NFJ9 (parent)
chain: MAAASSSDSDACGAESNEANSKWLDAHYDPMANIHTFSACLALADLHGDGEYKLVVGDLGPGGQQPRLKVLKGPLVMTESPLPALPAAAATFLMEQHEPRTPALALASGPCVYVYKNLRPYFKFSLPQLPPNPLEQDLWNQAKEDRIDPLTLKEMLESIRETAEEPLSIQSLRFLQLELSEMEAFVNQHKSNSIKRQTVITTMTTLKKNLADEDAVSCLVLGTENKELLVLDPEAFTILAKMSLPSVPVFLEVSGQFDVEFRLAAACRNGNIYILRRDSKHPKYCIELSAQPVGLIRVHKVLVVGSTQDSLHGFTHKGKKLWTVQMPAAILTMNLLEQHSRGLQAVMAGLANGEVRIYRDKALLNVIHTPDAVTSLCFGRYGREDNTLIMTTRGGGLIIKILKRTAVFVEGGSEVGPPPAQAMKLNVPRKTRLYVDQTLREREAGTAMHRAFQTDLYLLRLRAARAYLQALESSLSPLSTTAREPLKLHAVVQGLGPTFKLTLHLQNTSTTRPVLGLLVCFLYNEALYSLPRAFFKVPLLVPGLNYPLETFVESLSNKGISDIIKVLVLREGQSAPLLSAHVNMPGSEGLAAA
partner: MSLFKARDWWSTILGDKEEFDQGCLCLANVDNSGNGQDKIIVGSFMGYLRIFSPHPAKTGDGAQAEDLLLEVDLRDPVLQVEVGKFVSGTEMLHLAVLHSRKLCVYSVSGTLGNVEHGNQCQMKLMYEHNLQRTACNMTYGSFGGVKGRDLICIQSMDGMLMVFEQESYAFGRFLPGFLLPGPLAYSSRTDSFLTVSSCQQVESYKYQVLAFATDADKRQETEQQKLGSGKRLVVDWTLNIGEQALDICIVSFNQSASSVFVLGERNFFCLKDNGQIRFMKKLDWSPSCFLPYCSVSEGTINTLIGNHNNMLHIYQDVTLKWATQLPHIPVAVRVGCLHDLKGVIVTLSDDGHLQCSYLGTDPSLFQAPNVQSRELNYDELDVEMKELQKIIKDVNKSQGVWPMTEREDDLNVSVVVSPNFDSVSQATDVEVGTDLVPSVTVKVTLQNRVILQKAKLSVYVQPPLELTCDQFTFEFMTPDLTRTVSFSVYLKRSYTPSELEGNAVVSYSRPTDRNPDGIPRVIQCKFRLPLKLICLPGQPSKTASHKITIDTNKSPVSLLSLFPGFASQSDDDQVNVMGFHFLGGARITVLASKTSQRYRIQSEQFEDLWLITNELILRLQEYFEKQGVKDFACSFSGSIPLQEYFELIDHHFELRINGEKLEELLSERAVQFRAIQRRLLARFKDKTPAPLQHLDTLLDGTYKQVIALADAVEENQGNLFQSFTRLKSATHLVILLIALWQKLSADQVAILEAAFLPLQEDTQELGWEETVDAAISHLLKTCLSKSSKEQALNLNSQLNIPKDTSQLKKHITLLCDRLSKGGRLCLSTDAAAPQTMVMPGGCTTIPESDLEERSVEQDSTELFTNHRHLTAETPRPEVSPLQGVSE

Variants of: B1
Conditions: with pthb1_human BBS9, Q3SYG4

| Variant | effect of a mutation on the interaction |
| --- | --- |
| MAAASSSDSDACGAESNEANSKWLDAHYDPMANIHTFSACLALADLHGDGEYKLVVGDLGPGGQQPRLKVLKGPLVMTESPLPALPAAAATFLMEQHEPRTPALALASGPCVYVYKNLRPYFKFSLPQLPPNPLEQDLWNQAKEDRIDPLTLKEMLESIRETAEEPLSIQSLRFLQLELSEMEAFVNQHKSNSIKRQTVITTMTTLKKNLADEDAVSCLVLGTENKELLVLDPEAFTILAKMSLPSVPVFLEVSGQFDVEFRLAAACRNGNIYILRRDSKHPKYCIELSAQPVGLIRVHKVLVVGSTQDSLHGFTHKGKKLWTVQMPAAILTMNLLEQHSRGLQAVMAGLANGEVRIYRDKALLNVIHTPDAVTSLCFGRYGREDNTLIMTTRGGGLIIKILKRTAVFVEGGSEVGPPPAQAMKLNVPRKTRLYVDQTLREREAGTAMHRAFQTDLYLSRLRAARAYLQALESSLSPLSTTAREPLKLHAVVQGLGPTFKLTLHLQNTSTTRPVLGLLVCFLYNEALYSLPRAFFKVPLLVPGLNYPLETFVESLSNKGISDIIKVLVLREGQSAPLLSAHVNMPGSEGLAAA [L459S] | disrupting interaction strength |
| MAAASSSDSDACGAESNEANSKWLDAHYDPMANIHTFSACLALADLHGDGEYKLVVGDLGPGGQQPRLKVLKGPLVMTESPLPALPAAAATFLMEQHEPRTPALALASGPCVYVYKNLRPYFKFSLPQLPPNPLEQDLWNQAKEDRIDPLTLKEMLESIRETAEEPLSIQSLRFLQLELSEMEAFVNQHKSNSIKRQTVITTMTTLKKNLADEDAVSCLVLGTENKELLVLDPEAFTILAKMSLPSVPVFLEVSGQFDVEFRLAAACRNGNIYILRRDSKHPKYCIELSAQPVGLIRVHKVLVVGSTQDSLHGFTHKGKKLWTVQMPAAILTMNLLEQHSRGLQAVMAGLANGEVRIYRDKALLNVIHTPDAVTSLCFGRYGREDNTLIMTTRGGGLIIKILKRTAVFVEGGSEVGPPPAQAMKLNVPRKTRLYVDQTLREREAGTAMHRAFQTDLYLERLRAARAYLQALESSLSPLSTTAREPLKLHAVVQGLGPTFKLTLHLQNTSTTRPVLGLLVCFLYNEALYSLPRAFFKVPLLVPGLNYPLETFVESLSNKGISDIIKVLVLREGQSAPLLSAHVNMPGSEGLAAA [L459E] | with no effect |
| MAAASSSDSDACGAESNEANSKWLDAHYDPMANIHTFSACLALADLHGDGEYKLVVGDLGPGGQQPRLKVLKGPLVMTESPLPALPAAAATFLMEQHEPRTPALALASGPCVYVYKNLRPYFKFSLPQLPPNPLEQDLWNQAKEDRIDPLTLKEMLESIRETAEEPLSIQSLRFLQLELSEMEAFVNQHKSNSIKRQTVITTMTTLKKNLADEDAVSCLVLGTENKELLVLDPEAFTILAKMSLPSVPVFLEVSGQFDVEFRLAAACRNGNIYILRRDSKHPKYCIELSAQPVGLIRVHKVLVVGSTQDSLHGFTHKGKKLWTVQMPAAILTMNLLEQHSRGLQAVMAGLANGEVRIYRDKALLNVIHTPDAVTSLCFGRYGREDNTLIMTTRGGGLIIKILKRTAVFVEGGSEVGPPPAQAMKLNVPRKTRLYVDQTLREREAGTAMHRAFQTDLYLLALRAARAYLQALESSLSPLSTTAREPLKLHAVVQGLGPTFKLTLHLQNTSTTRPVLGLLVCFLYNEALYSLPRAFFKVPLLVPGLNYPLETFVESLSNKGISDIIKVLVLREGQSAPLLSAHVNMPGSEGLAAA [R460A] | with no effect |

Further lines, results first:

| effect of a mutation on the interaction | Variant |
| --- | --- |
| with no effect | MAAASSSDSDACGAESNEANSKWLDAHYDPMANIHTFSACLALADLHGDGEYKLVVGDLGPGGQQPRLKVLKGPLVMTESPLPALPAAAATFLMEQHEPRTPALALASGPCVYVYKNLRPYFKFSLPQLPPNPLEQDLWNQAKEDRIDPLTLKEMLESIRETAEEPLSIQSLRFLQLELSEMEAFVNQHKSNSIKRQTVITTMTTLKKNLADEDAVSCLVLGTENKELLVLDPEAFTILAKMSLPSVPVFLEVSGQFDVEFRLAAACRNGNIYILRRDSKHPKYCIELSAQPVGLIRVHKVLVVGSTQDSLHGFTHKGKKLWTVQMPAAILTMNLLEQHSRGLQAVMAGLANGEVRIYRDKALLNVIHTPDAVTSLCFGRYGREDNTLIMTTRGGGLIIKILKRTAVFVEGGSEVGPPPAQAMKLNVPRKTRLYVDQTLREREAGTAMHRAFQTDLYLLELRAARAYLQALESSLSPLSTTAREPLKLHAVVQGLGPTFKLTLHLQNTSTTRPVLGLLVCFLYNEALYSLPRAFFKVPLLVPGLNYPLETFVESLSNKGISDIIKVLVLREGQSAPLLSAHVNMPGSEGLAAA [R460E] |
| with no effect | MAAASSSDSDACGAESNEANSKWLDAHYDPMANIHTFSACLALADLHGDGEYKLVVGDLGPGGQQPRLKVLKGPLVMTESPLPALPAAAATFLMEQHEPRTPALALASGPCVYVYKNLRPYFKFSLPQLPPNPLEQDLWNQAKEDRIDPLTLKEMLESIRETAEEPLSIQSLRFLQLELSEMEAFVNQHKSNSIKRQTVITTMTTLKKNLADEDAVSCLVLGTENKELLVLDPEAFTILAKMSLPSVPVFLEVSGQFDVEFRLAAACRNGNIYILRRDSKHPKYCIELSAQPVGLIRVHKVLVVGSTQDSLHGFTHKGKKLWTVQMPAAILTMNLLEQHSRGLQAVMAGLANGEVRIYRDKALLNVIHTPDAVTSLCFGRYGREDNTLIMTTRGGGLIIKILKRTAVFVEGGSEVGPPPAQAMKLNVPRKTRLYVDQTLREREAGTAMHRAFQTDLYLLKLRAARAYLQALESSLSPLSTTAREPLKLHAVVQGLGPTFKLTLHLQNTSTTRPVLGLLVCFLYNEALYSLPRAFFKVPLLVPGLNYPLETFVESLSNKGISDIIKVLVLREGQSAPLLSAHVNMPGSEGLAAA [R460K] |
